From US12227570B2, “Anti-CEACAM6 antibodies and methods of use” (Singapore Health Services PTE LTD, priority 2016, dated 2025)

How the values were obtained:
A549−GR6A04+ = assay: ADCC reporter bioassay (Promega, Luciferase reporter for FcγR); format: cell-based
Protocol: (§1) ADCC activity was measured using a reporter bioassay (Promega; ADCC Reporter Bioassay, #G7010). The ADCC bioassay was carried out according to the manufacturer's protocol Briefly, PC-9 and A549 cells were seeded at 5,000 cells per well in a 96-well clear bottom black tissue culture plates (Corning; #3904) in low 4% IgG-serum (Promega; #G711A) media and allowed to attach and spread overnight. Serial dilutions of Hu-GR6A04 were incubated in triplicate wells for approximately 15 min at 37° C., 5% CO2. Following incubation, engineered effector cells were added to the wells at approximately 150,000 cells per well. After 6 hours, Bio-Glo™ Luciferase Assay Substrate (Promega; #G719A and #G720A) was added to the wells and luminescence was measured using the Infinite® 200 microplate reader (Tecan).

PC-9 = assay: as above; format: cell-based
Protocol: as §1

B1: GR6A04: mouse IgG1, κ anti-CEACAM6 monoclonal antibody, VH SEQ ID NO:1, VL SEQ ID NO:2, binds N-glycosylated CEACAM6 (antibody, V domains shown)
VH: SGPELVKPGASVKMSCKASGNTFTSYVMHWVKQKPGQGLEWIGYINPYNDGTKYNEKFKGKATLTSDKSSSTAYMELSSLTSEDSAVYYCARSTARATPYFYAMDYWGQGTSVTVSS
VL: DILMTQSPSSLAVTAGEKVTMRCKSSQSLLWSVNQNSYLSWYQLKQGQPPKLLLYGASIRESWVPDRFTGSGSGTDFTLTISNVHVEDLAVYYCQHNHGSFLPYTFGGGTKLEIK
modifications: Isolated antibody fragment
With B1 the EC50 (A549−GR6A04+) was 1.33 nM and the EC50 (PC-9) was 39.6 nM.
